# B1: TAF7L (parent)
# chain: PDVENEVKRLLRSDAEAVSTRWEV
# Variants of: B1
# Assay: protein stability index of a GFP-peptide fusion (GPS, HEK-293T) (PSI 1-6); higher = more stable
# Settings: c terminus: a fixed tail appended
# 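Further: lentivirally expressed fusions sorted by FACS into six bins by GFP to DsRed ratio, PSI derived from sequencing read proportions per bin multiplied by bin number.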
row,Variant,protein stability index
1,PDVENEVKRLLRSDPEAVSTRWEV,3.19
2,PDVENEVKRLLRSDTEAVSTRWEV,1.9
3,PDVENEVKRLLRSDGEAVSTRWEV,3.97
4,PDVENEVKRLLRSDHEAVSTRWEV,3.88
5,PDVENEVKRLLRSDDEAVSTRWEV,4.09
6,PDVENEVKRLLRSDVEAVSTRWEV,3.02
7,PDVENEVKRLLRSDEEAVSTRWEV,4.36
8,PDVENEVKRLLRSDQEAVSTRWEV,3.46
9,PDVENEVKRLLRSDLEAVSTRWEV,3.58
10,PDVENEVKRLLRSDSEAVSTRWEV,3.22
11,PDVENEVKRLLRSDREAVSTRWEV,2.99
12,PDVENEVKRLLRSDFEAVSTRWEV,2.57
13,PDVENEVKRLLRSDWEAVSTRWEV,2.93
14,PDVENEVKRLLRSDNEAVSTRWEV,3.54
15,PDVENEVKRLLRSDYEAVSTRWEV,3.51
16,PDVENEVKRLKRSDAEAVSTRWEV,4.37
17,PDVENEVKRLQRSDAEAVSTRWEV,4.35
18,PDVENEVKRLMRSDAEAVSTRWEV,3.14
19,PDVENEVKRLPRSDAEAVSTRWEV,4.74
20,PDVENEVKRLSRSDAEAVSTRWEV,3.53
21,PDVENEVKRLNRSDAEAVSTRWEV,4.79
22,PDVENEVKRLRRSDAEAVSTRWEV,4.2
23,PDVENEVKRLTRSDAEAVSTRWEV,4.11
24,PDVENEVKRLLRSDAENVSTRWEV,3.61

row,Variant,protein stability index
1,PDVENEVKRLLRSDAETVSTRWEV,2.71
2,PDVENEVKRLLRSDAEGVSTRWEV,3.69
3,PDVENEVKRLLRSDAESVSTRWEV,3.93
4,PDVENEVKRLLRSDAEPVSTRWEV,3.28
5,PDVENEVKRLLRSDAECVSTRWEV,3.54
6,PDVENEVKRLLRSDAEVVSTRWEV,3.35
7,PDVENEVKRLLRSDAEFVSTRWEV,2.64
8,PDVENEVKRLLRSDAEAVGTRWEV,3.54
9,PDVENEVKRLLRSDAEAVFTRWEV,2.73
10,PDVENEVKRLLRSDAEAVHTRWEV,3.18
11,PDVENEVKRLLRSTAEAVSTRWEV,2.12
12,PDVENEVKRLLRSAAEAVSTRWEV,1.97
13,PDVENEVKRLLRSLAEAVSTRWEV,1.77
14,PDVENEVKRLLRSYAEAVSTRWEV,1.45
15,PDVENEVKRLLRSWAEAVSTRWEV,1.48
16,PDVENEVKRLLRSNAEAVSTRWEV,2.75
17,PDVENEVKRLLRSPAEAVSTRWEV,2.13
18,PDVENEVKRLLRSMAEAVSTRWEV,3.06
19,PDVENEVKRLLRSHAEAVSTRWEV,3.25
20,PDVENEVKRLLRSSAEAVSTRWEV,2.26
21,PDVENEVKRLLRSRAEAVSTRWEV,2.38
22,PDVENEVKRLLRSDADAVSTRWEV,3.74
23,PDVENEVKRLLRSDAIAVSTRWEV,2.08
24,PDVENEVKRLLRSDAFAVSTRWEV,2.27

row,Variant,protein stability index
1,PDVENEVKRLLRSDACAVSTRWEV,2.01
2,PDVENEVKRLLRSDALAVSTRWEV,2.73
3,PDVENEVKRLLRSDAQAVSTRWEV,3.22
4,PDVENEVKRLLRSDATAVSTRWEV,2.77
5,PDVENEVKRLLRSDAPAVSTRWEV,3.18
6,PDVENEVKRLLRSDAKAVSTRWEV,2.65
7,PDVENEVKRLLRSDASAVSTRWEV,3.17
8,PDVENEVKRLLRSDARAVSTRWEV,2.12
9,PDVENEVKRLLRSDAYAVSTRWEV,1.46
10,PDVENEVKRLLRSDAMAVSTRWEV,1.71
11,PDVENEVKRLLRSDAHAVSTRWEV,2.9
12,PDVENEVKRLLRPDAEAVSTRWEV,4.71
13,PDVENEVKRLLREDAEAVSTRWEV,4.19
14,PDVENEVKRLLRMDAEAVSTRWEV,3.54
15,PDVENEVKRLLRGDAEAVSTRWEV,3.02
16,PDVENEVKRLLRKDAEAVSTRWEV,3.76
17,PDVENEVKRLLRFDAEAVSTRWEV,1.9
18,PDVENEVKRLLRYDAEAVSTRWEV,2.87
19,PDVENEVKRLLRIDAEAVSTRWEV,3.29
20,PDVENEVKRLLRQDAEAVSTRWEV,2.09
21,PDVENEVKRLLRDDAEAVSTRWEV,4.14
22,PDVENEVKRLLRHDAEAVSTRWEV,2.53
23,PDVENEVKRLLRNDAEAVSTRWEV,3.53
24,PDVENEVKRLLRSDAEAQSTRWEV,3.9

row,Variant,protein stability index
1,PDVENEVKRLLRSDAEAKSTRWEV,2.9
2,PDVENEVKRLLRSDAEAESTRWEV,4.54
3,PDVENEVKRLLRSDAEAPSTRWEV,3.31
4,PDVENEVKRLLRSDAEAGSTRWEV,4.29
5,PDVENEVKRLLRSDAEAFSTRWEV,2.31
6,PDVENEVKRLLRSDAEATSTRWEV,3.83
7,PDVENEVKRLLRSDAEAWSTRWEV,2.22
8,PDVENEVKRLLRSDAEAMSTRWEV,4.78
9,PDVENEVKRLLRSDAEAYSTRWEV,3.37
10,PDVENEVKRLLYSDAEAVSTRWEV,3.96
11,PDVENEVKRLLSSDAEAVSTRWEV,3.75
12,PDVENEVKRLLDSDAEAVSTRWEV,4
13,PDVENEVKRLLPSDAEAVSTRWEV,4.61
14,PDVENEVKRLLHSDAEAVSTRWEV,4.38
15,PDVENEVKRLLCSDAEAVSTRWEV,2.99
16,PDVENEVKRLLNSDAEAVSTRWEV,3.87
17,PDVENEVKRLLESDAEAVSTRWEV,4.54
18,PDVENEVKRLLKSDAEAVSTRWEV,4.19
19,PDVENEVKRLLWSDAEAVSTRWEV,2.33
20,PDVENEVKRLLVSDAEAVSTRWEV,2.96
21,PDVENEVKRLLASDAEAVSTRWEV,3.5
22,PDVENEVKRLLFSDAEAVSTRWEV,2.88
